According to paper PMC3967714 (Cell reports, 2013):
Positions count from the first letter of the chain named. Where no end group is shown, it is not given here.

T1: Dido3 PHD finger (Homo sapiens, UniProt Q9BTC0)
T1 sequence (Q9BTC0 266-325): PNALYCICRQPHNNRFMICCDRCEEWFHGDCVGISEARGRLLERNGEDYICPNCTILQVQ

T2: Dido3 PHD E289A (UniProt Q9BTC0-4 266-325, E289A)
T2 sequence: T1 sequence (Q9BTC0 266-325) with E24A

T3: Dido3 PHD D286A (UniProt Q9BTC0-4 266-325, D286A)
T3 sequence: T1 sequence (Q9BTC0 266-325) with D21A

T4: Dido3 PHD H277A (UniProt Q9BTC0-4 266-325, H277A)
T4 sequence: T1 sequence (Q9BTC0 266-325) with H12A


Key:
Dido3 PHD finger [1] = target: T1, Dido3 PHD finger; assay type: binding; settings: wild-type Dido3 PHD, tryptophan fluorescence and NMR, peptides aa 1–12 of H3
Dido3 PHD finger [2] = target: T1, Dido3 PHD finger; experiment: 1H,15N HSQC NMR titration of 15N-labeled Dido3 PHD with histone peptides; assay type: binding; settings: for chemical-shift changes in 1H,15N HSQC spectra: peptides aa 1–12 of H3 (H3K4me0: aa 1–19)
Dido3 PHD E289A = target: T2, Dido3 PHD E289A; experiment: other fluorescence titration + NMR titration
Dido3 PHD D286A = target: T3, Dido3 PHD D286A; experiment: other fluorescence titration + NMR titration
Dido3 PHD H277A = target: T4, Dido3 PHD H277A; experiment: other fluorescence titration + NMR titration

Row | Molecule | weaker binding relative to H3K4me3 (Dido3 PHD finger [1]) [fold] | exchange regime on the NMR timescale (Dido3 PHD finger [2]; peptide aa 1–12 of H3) | chemical-shift changes in 1H,15N HSQC spectra (Dido3 PHD finger [2]) | fold decrease of binding against the wild type (Dido3 PHD E289A) [fold] | fold decrease of binding against the wild type (Dido3 PHD D286A) [fold] | binding result (Dido3 PHD H277A)
1 | H3K4me1: H3K4me1 peptide (aa 1–12 of H3) | 85 | intermediate exchange regime | very similar pattern of chemical-shift changes |  |  | 
2 | H3K4me2: H3K4me2 peptide (aa 1–12 of H3) | 6 |  | very similar pattern of chemical-shift changes |  |  | 
3 | ARTK(Me3)QTARKSTG (peptide, UniProt P68431 2-13, looked up) [H3K4me3 peptide (aa 1-12 of H3)] |  |  |  | ~4 | ~200 | binds
